The test system of this data set is NCCCC(=O)O. Put plainly: purified protein. Conditions: fixed pyruvate (6 mM), TAPS pH 9.0, 50 µM PLP, 30 °C.

The values that follow come from doi:10.1101/2025.05.23.655777v1.

Consider “GABA-AT; GABA aminotransferase 1 (recombinant) (Arabidopsis thaliana)”, for which the Km (in general, the concentration of substrate that gives half-maximal velocity) amounted to 590 ± 200 µM and the kcat (commonly the maximal rate divided by the concentration of active sites) was 4.97 s⁻¹.
